B1: 21 (protein, listed as Agrobacterium tumefaciens)
chain: MAQGKVALEEHFAIPETLQDSAGFVPGDYWKELQHRLLDIQDTRLKLMDAHGIETMILSLNAPAVQAIPDRKKAIEIARRANDVLAEECARRPDRFLAFAALPLQDPDAATQELQRCVNDLGFVGALVNGFSQEGDGQTPLYYDLPQYRPFWGEVEKLDVPFYLHPRNPLPQDSRIYDGHPWLLGPTWAFAQETAVHALRLMASGLFDAHPRLNIILGHMGEGLPYMMWRIDHRNAWVKLPPRYPAKRRFVDYFNENFHITTSGNFRTQTLIDAILEIGADRILFSTDWPFENIDHASDWFNATTIAEADRVKIGRTNARRLFKLDGR
B2: 9 (protein, listed as Octadecabacter antarcticus)
chain: MATPKITFEEHFMAPGFEKHSEAFLKLIPRDQAEILTRRLGDFDGERIETMDRGGITRSIISLTGPGTQGEAVEKAVSAAQGANDFLAEKISKKPDRLGGLATLPMHDPDAAARELNRAVNDLGLQGCLVNTHTHGAYYEGTDYDPFWAEVEKLGVPFYLHPSNAYVTPHVLGGMPVLQGATWGWGVETGSHALRILFGGVFDRFPDVKLVLGHMGEALPFLRWRYDSRFGAYPMGVSLDRAPSAYFGSNILITTSGVCSHPSLIGAIGEMGADAVMFSVDYPYEDTDLAVEFIETAPLEDATRVKICHDNAARLFGMPTLAAKEGA
B3: 10 (protein, listed as Starkeya novella)
chain: MARKIALEEHFTTPELAGKYVARPTQSDALFADIERRLADFDELRLEMMDRAEIDLMVLSVTTPGVQGVRDTGEAIRLARGANDFLAREVQKRPSRYAGFAHLAMQDAEAAATELERAVRELGFRGALINGQTNGHYLDEDQYAPFWERVQELDVPVYLHPGNMADSPAMFAHRPELGGPIWAWTAETAAHALRLVFGGTFTRFPGAKVILGHMGETLPFLLWRLDSRREFDLGEKLAPDALPSAIIKRNIAVTTSGVCDPAPLVAALQALSDDNVMFSVDYPYEDPQLASKFIETAPIGEETRAKVCHGNAERLLGL
B4: 15 (protein, listed as Metarhizium anisopliae)
chain: MAQEIAKSHETSTRFAGFAVLPMRDPEAAAKELERAVKKLGFVGALVDHKTAHGNGFCEGNEYDVLWRKAEQLAVPIYLHPSWPTEKQFQQAYAGNYSPTAAGTIGGAMFNWHSEVGHHVLRLYAAGVFDKFPKLKIIIGHFGEMIPYMLDRIREQDHRLGKTGRTFSEVYDENIWITTSGVWSLDPMRCILANTKIDHILYSVDYPFTMNERGLEWFQELEKSGLLSEEDLALIAYKNCEKLLGVKAPTQD
B5: 18 (protein, listed as Legionella pneumophila)
chain: MAIVDFETHFITEACIDYLTQRQEVPKLVPELNGAYTMCFTPDVSLFHTSALMEELLSLNEQRLAIMDQAGVTIQVLSLTTINGIDSCPGDENKSTALAREVNDQLYSAIQKHPERFKGFASISPYDVKEGVKELERAISQLGFVGWLTHSNFGQDNYLDDKIYWPLLEAAESLNIPIYLHPNVPIMREFGKYGFALGGSALGFEFDTALCLMRMILGGVFDAFPKLKIMLGHLGETMPFLMERLDHLYRIPDLKPYRPSIQRIPSEVLRQNVYITTSGRFFVPALRYVLEVMGEDRVLFASDYPMESLLDATRFIQDSDLSNQTKQKIFSINAKNLNLI
B6: 20 (protein, listed as Legionella pneumophila)
chain: MAIVDFETHFITEACIDYLTQRQEVPKLVPDLNGAYTMCFTPDVSLFHTSALMEELLSLNEQRLAIMDQAGVTIQVLSLTTINGIDSCPGDENKSTALAREVNDQLYSAIQRHPERFKGFASISPYDVKEGVKELERAISQLGFVGWLTHSNFGQDNYLDDKTYWPLLEAAEGLNIPIYLHPNVPIMREFGKYGFALGGSALGFEFDTALCLMRMILGGVFDAFPKLKIMLGHLGETMPFLMERLDHLYRIPDLKAYRPSIQRIPSEVLRQNVYITTSGRFFVPALRYVLEVMGEDRVLFASDYPMESLLDATRFIQDSDLSNQTKQKIFSINAKNLNLI
B7: 16 (protein, listed as Staphylococcus aureus)
chain: MAQNNMEANQMKSITFEEHYVIEDIQKETMNAISADPKGVPMKVMLEGLEKKTGFTNADELSHHDERIQFMNNQDVQIQVLSYGNGSPSNLVGQKAIELCQKANDQLANYIAQYPNRFVGFATLPINEPETAAREFERCINDLGFKGALIMGRAQDGFLDQDKYDIIFKTAENLGVPIYLHPAPVNSDIYQSYYKGNYPEVTAATFACFGYGWHIDVGIHAIHLVLSGIFDRYPKLNMIIGHWGEFIPFFLERMDEALFAEHLNHPVSYYFKNNFYITPSGMLTKPQFDLVKKEAGIDRILYAADYPYIEPEKLGVFLDELGLTDEEKEKISYTNGAKLLGLSSNN
B8: 22 (protein, listed as Staphylococcus epidermidis)
chain: MAKSINFEEHYVVDDIQKETMKYMSSDPNGVPMQTMLKGLEQKSGFTNADDITKHDERIKFMDEHDVEMQVLSYGNGAPSNLEGERAIELCQQANDTLAKYVNEHPDRFVGFATLPINEPQAAVEEFKRCIKELGFKGALIMGHPKNGFLDQDQYDDLFATAEALNVPIYLHPSPVQSDVYQAYYKGNYSDVTAATFACFGYGWHVDVGIHAIHLVLSGVFDRHPNLNMIIGHWGEFVPFFLERMDDILFADHLEHPISYYFKNNFYITPSGMLTKPQFDLVKAEVGVDRILYSADYPYVEPDKLGTFLDELDLTEEEKEKISYKNGAKLLGLEK
B9: 23 (protein, listed as Aplysina aerophoba)
chain: MAIDIDARSQPGLETARRAMSRRDFLGGAAAFGITAAATTALPASTAAGEEEDLFLLGLEEHFATAELRRLNGIQFPQGTPRFDINDVGAGRIADMDAAGIDIQVLSALTPGAQNLPGAEGVAYARRLNSWVAHEVIPAYPGRFRAFATLPLSEPQAAADELEYAVRELGFLGCMTYGAVDGKFLDHADFVPVLARAETLDVPIYIHPNWASPQVMDTYYNGLGNEWVSRVLSGAGYGWHQEVALQCLRMIASGVFDRFPRLQIIVGHMGEGLPFFYWRFGDDLARITADTLEKPVQQYFHDNFWITTSAFFRDELLRLVLSVMGEDRVMFAVDYPFVSNKVGADWFRAVDLPRNVKEKIAHKNAERLLKIGPF
B10: 17 (protein)
chain: MARGKIALEEAFEVKGMDEEIDAQAALYIAPKDVERYKRQIVSITDERLQLSDQNGIGYSILSLTVPGIQGITDKDKAEKRARDVNNYIHDQIKDHRDRLGAFAALSMHDPRQAGHELRRCVKELGFHGALLNDVQHTGEGDDDQPLFYDQPDYDEFWRVAVELDVPVYLHPAAPLRDTLIYKQSYEDRKYLVGPPQSYCNGVALHLMGIIVNGVFDRFPNLKVIVGHMGERIPFDFWRMDHWVKGVTRPLAEKNGDTVCQKEPLYYFKRNIYITTSGHFSTQNLRYLYEWLGDERMMFSVDFPYERMEHGCQWYDDDAEKIKEALGGRDGYLRVGRDNARRLFKLTKFKDCDAV
modifications: Aspergillus niger
B11: 14 (protein, listed as Talaromyces marneffei)
chain: MARGKVSFEEAYEIPALADKSREQAALYIAPKDLDRYLSEIKSPTGGRLDISNKNGIGYTIYSLTVPGVQGIADKAKAEKHATDVNNWIYNEIKDHRDRMGAFAALSMHDPVQAGQELERCVKKLGFHGALLNNWQHAGTDGETYIFYDHPSYDVFWQKCVELDVPVYLHPSAPSGKVFDTFFKDRRYLIGPPISFAQDVALHTMGLITNGVFDRNPKLKLILGHLGERIPQDLWRTNHWLEDVERPLADSRGDTMSRKPLLYYFKNNIYVTTSGHFSTETVKFVCDYFGADRILFSVDSPYEKIEEGAGWYDKDKDNLTKALGGPQQYLDVGRENAKKLFKLGKYHDCDA
B12: 19 (protein, listed as Talaromyces marneffei)
chain: MATPIITLEEHYISSAIRDASETDHYAVFPSQIISKLNTLSTERLQDLDNGHVSLQVISHGPGAQPPYLCQAANDELASAISANPTRFAGFALLPIAEPQLAVQELERCITQHKFVGALIDNHTNGQFYDDQKFWPVFEKAQELDAPIYVHPSYPDEESGVAAHYRGNYDDRIAAALGAYGWGWHSDTALSILRLFAAGLFDTYPNIKIIIGHMGEMLPFQLERVIGIASRFGRSRGLREVWTQNIWVTTSGMFALAPLACLLQTMPIERVLYSVDYPFSANEKGFAFLEEIKKSGLIKEGEDWERFLYKNAQELLKVNV
B13: 11 (protein)
chain: MALGKIALEEAFALPRFEEKTRWWASLFSVDPETHVKEITDINKLRIEHADKYGVGYQILSYTAPGVQDIWDPVEAQALAVEINDYIAEQIRDKPDRFGAFATLSMHNPQEAASELRRCVQTYGFKGALVNDTQRAGPDGDDMIFYDNASWDIFWQTCTELDVPLYLHPRNPTGTIYEKLWADRKWLVGPPLSFAQGVSLHVLGMVTNGVFDRHPNLQLIMGHLGEHVPFDMWRINHWFEDRKKLLGLAETCKKTIREYFAQNIWITTSGHFSTTTLNFCMAEVGVDRILFSIDYPFETFEDACVWFDGAELNLSDKAKIGRDNAARLFKLGAFRDYDAKVKA
modifications: Aspergillus niger
B14: 13 (protein, listed as Metarhizium acridum)
chain: MAHGKVALEEAFALPRLHEKTRWWASLFAVNPDKHAAEMTDITDIRINYMDKHGVGYTILSYTAPGVQDISDPKEAQALAVEINDYVAGAIKNHPDRFGAFATLSMRNPQEAATELKRCVTQYGFKGALVNDTQRAGEDDMIFYDGPEWDVFWSTVEELDVPFYLHPRNPTGSLYEKLWAKRKWLVGPPLSFAQGVSLHVLGMVTNGVFDRHPKLQVVLGHLGEHIPFDMWRINHWFEDVKKPLGLDCKKTIREYFQQNIWITTSGHFSTTTLQFCMAEVGADRILFSIDYPFECFADACDWYDGVPINLVDKAKIGRDNARRLFKLPEFKDSEKHVDA
B15: 12 (protein, listed as Zymoseptoria tritici)
chain: MALGKVAFEEAFALPRFKERTTWWAGLFAVDPEKHTREINDINKLRIEKMDQFGVGYTLLSYTAPGVQDVWQQEEADALAREVNDHVAAEIKGHEDRLGALATLSMHDPQTASAELRRCIKDYGFKGALVNDTQRNDESGTGMIFYDGPEWDVFWSTVQELDVPFYLHPRNPTGVFMEKLWAPRKWLVGPPLSFAQGVSLHLLGMVTNGTFDRFPNLQVIIGHLGEHLPFDLWRINHWFEDIKKPLGLDCKKTIREYFNENIWITTSGHFSTPTLEYCIKEIGAERILFSIDYPFEKFEDACDWYDGVELDGPDTVKKIGRENAKKLFKLGAFKDDSA

Test: 14C assay with IPTG-induced recombinant E. coli cells (14CO2 capture from [14C]-carboxyl-labeled dicamba)
Conditions: for Dicamba Decarboxylase Activity: IPTG-induced recombinant E. coli cells, [14C]-carboxyl-labeled dicamba, 14CO2 capture; for Enzymatic Detection level: dicamba decarboxylation activity of the protein of the given SEQ ID NO

Molecule | Dicamba Decarboxylase Activity | Enzymatic Detection level
B1 | High | High
B2 | No | No
B3 | Low | Low
B4 | Low | Low
B5 | Low | Low
B6 | Low | Low
B7 | High | High
B8 | High | High
B9 | Low | Low
B10 | Low | Low
B11 | Low | Low
B12 | High | High
B13 | Low | Low
B14 | No | No
B15 | No | No

Source: patent US20140287419A1, “Compositions Having Dicamba Decarboxylase Activity and Methods of Use” (priority 2013, published 2014)
